{"source": "paper PMC11500311", "about": "“Binding of a single nitric oxide molecule is sufficient to disrupt DNA binding of the nitrosative stress regulator NsrR†” (Chemical Science, 2024)", "binders": {"B1": {"name": "hmpA1 22 bp native MS (dsDNA)", "DNA 1": "AACACGAATATCATCTACCAAT", "DNA 2": "ATTGGTAGATGATATTCGTGTT"}, "B2": {"name": "hmpA2 23 bp native MS (dsDNA)", "DNA 1": "AACAAGCATCTGAGATCCCAGTT", "DNA 2": "AACTGGGATCTCAGATGCTTGTT"}, "B3": {"name": "NsrR from Streptomyces coelicolor, non-tagged (natural protein)", "chain": "MRLTKFTDLALRSLMRLAVVRDGDEPLATREVAEVVGVPYTHAAKAITRLQHLGVVEARRGRGGGLTLTDLGRRVSVGWLVRELEGEAEVVDCEGDNPCPLRGACRLRRALRDAQEAFYAALDPLTVTDLVAAPTGPVLLGLTDRPSG", "notes": "NsrR, Rrf2-family transcriptional regulator of Streptomyces coelicolor A3, locus SCO7427; non-tagged construct from pNsrR; Homodimer; Each subunit can carry a [4Fe–4S] cluster: two clusters per dimer is holo, one is hemi-apo, none is apo; All three forms were observed as dimers by native MS (32 608, 32 257 and 31 907 Da); also called non-tagged NsrR; [4Fe–4S]; NsrR; source: E. coli BL21 λDE3 …"}}, "key": {"[1]": {"target": "T1, holo NsrR ([4Fe-4S] in each subunit) (Streptomyces coelicolor, UniProt Q9L132 1-148)", "T1 sequence": "B3 chain", "test": "native MS; 100 mM ammonium acetate pH 8; relative affinity; SPR: 10 mM HEPES, 150 mM NaCl, 0.05% polysorbate 20, pH 7.4, 25 C, anaerobic; native MS: 100 mM ammonium acetate pH 8 (30 C for nitrosylation)", "details": "protein: recombinant; tags: none; chain copies: 2; blunt"}, "[2]": {"target": "T1, holo NsrR ([4Fe-4S] in each subunit)", "test": "native MS; about equal free and DNA-bound holo NsrR before NO; SPR: 10 mM HEPES, 150 mM NaCl, 0.05% polysorbate 20, pH 7.4, 25 C, anaerobic; native MS: 100 mM ammonium acetate pH 8 (30 C for nitrosylation)", "details": "protein: recombinant; tags: none; chain copies: 2; blunt"}, "[3]": {"target": "the molecule itself", "test": "native MS; as-isolated and reconstituted NsrR, 8 μM [4Fe–4S], ionised from 100 mM ammonium acetate pH 8.0, positive-mode ESI, no DNA"}}}
{"binder": "B1", "values": [{"measurement": "Kd", "setting": "[1]", "value": "3000 ± 100", "unit": "nM"}]}
{"binder": "B2", "values": [{"measurement": "binding result", "setting": "[2]", "value": "binds"}]}
{"binder": "B3", "values": [{"measurement": "stoichiometry N", "setting": "[3]", "value": 2}]}
